Experiments:
Experiment in all cases: SPR, antibody captured, C2 as analyte;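 note: biacore SPR at 37 °C, anti-C2 mAbs captured via goat anti-human IgG on CM5 chips, double-referenced sensorgrams fit to a 1:1 kinetic or steady-state model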
[1] = biological target: T1, human complement C2 (wild type) (human, UniProt P06681 21-752)
T1 construct: Full-length human C2 (NP_000054) with C-terminal 8x His tag, secreted from Expi293F cells and purified from the supernatant; also called WT; huC2
T1 sequence: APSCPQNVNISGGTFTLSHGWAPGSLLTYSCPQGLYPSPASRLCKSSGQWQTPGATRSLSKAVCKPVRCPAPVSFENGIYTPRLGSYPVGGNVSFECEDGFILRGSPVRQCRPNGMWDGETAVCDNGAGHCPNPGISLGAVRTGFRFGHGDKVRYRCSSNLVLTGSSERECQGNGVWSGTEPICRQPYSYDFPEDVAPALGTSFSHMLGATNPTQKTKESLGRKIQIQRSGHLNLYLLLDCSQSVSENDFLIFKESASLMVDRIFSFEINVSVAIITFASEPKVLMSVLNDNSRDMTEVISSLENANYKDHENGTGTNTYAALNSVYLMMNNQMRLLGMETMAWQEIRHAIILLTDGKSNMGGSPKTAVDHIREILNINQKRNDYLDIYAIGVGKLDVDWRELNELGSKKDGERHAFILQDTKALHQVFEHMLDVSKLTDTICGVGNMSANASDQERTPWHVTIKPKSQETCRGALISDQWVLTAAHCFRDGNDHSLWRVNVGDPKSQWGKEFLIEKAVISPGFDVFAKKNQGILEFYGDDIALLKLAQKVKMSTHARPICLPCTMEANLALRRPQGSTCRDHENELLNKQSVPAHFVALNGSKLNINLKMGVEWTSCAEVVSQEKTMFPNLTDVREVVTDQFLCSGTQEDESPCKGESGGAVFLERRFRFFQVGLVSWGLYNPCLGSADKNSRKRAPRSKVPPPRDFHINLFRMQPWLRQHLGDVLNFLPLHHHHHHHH

[2] = biological target: T2, human C2 L271A (human, UniProt P06681 21-752)
T2 sequence: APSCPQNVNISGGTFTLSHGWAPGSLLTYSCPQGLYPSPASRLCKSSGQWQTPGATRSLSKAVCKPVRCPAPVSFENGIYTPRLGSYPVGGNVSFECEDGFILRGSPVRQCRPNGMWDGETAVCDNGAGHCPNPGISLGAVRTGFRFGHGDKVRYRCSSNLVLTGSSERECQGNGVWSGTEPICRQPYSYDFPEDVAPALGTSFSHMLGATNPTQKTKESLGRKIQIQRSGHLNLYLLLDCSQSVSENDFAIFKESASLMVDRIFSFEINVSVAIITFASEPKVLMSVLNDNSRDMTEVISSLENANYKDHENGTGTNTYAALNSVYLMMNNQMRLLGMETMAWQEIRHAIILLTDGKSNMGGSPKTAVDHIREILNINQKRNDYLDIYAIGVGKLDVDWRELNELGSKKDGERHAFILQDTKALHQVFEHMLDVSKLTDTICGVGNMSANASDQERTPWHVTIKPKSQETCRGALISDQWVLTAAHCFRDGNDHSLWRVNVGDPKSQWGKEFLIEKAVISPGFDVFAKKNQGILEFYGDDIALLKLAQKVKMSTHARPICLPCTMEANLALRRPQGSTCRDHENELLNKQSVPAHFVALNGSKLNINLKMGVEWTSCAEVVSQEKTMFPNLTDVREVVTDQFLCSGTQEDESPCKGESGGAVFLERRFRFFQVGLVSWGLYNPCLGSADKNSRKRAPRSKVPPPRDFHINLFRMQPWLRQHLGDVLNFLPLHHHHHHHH

[3] = biological target: T3, human C2 V465A (human, UniProt P06681 21-752)
T3 sequence: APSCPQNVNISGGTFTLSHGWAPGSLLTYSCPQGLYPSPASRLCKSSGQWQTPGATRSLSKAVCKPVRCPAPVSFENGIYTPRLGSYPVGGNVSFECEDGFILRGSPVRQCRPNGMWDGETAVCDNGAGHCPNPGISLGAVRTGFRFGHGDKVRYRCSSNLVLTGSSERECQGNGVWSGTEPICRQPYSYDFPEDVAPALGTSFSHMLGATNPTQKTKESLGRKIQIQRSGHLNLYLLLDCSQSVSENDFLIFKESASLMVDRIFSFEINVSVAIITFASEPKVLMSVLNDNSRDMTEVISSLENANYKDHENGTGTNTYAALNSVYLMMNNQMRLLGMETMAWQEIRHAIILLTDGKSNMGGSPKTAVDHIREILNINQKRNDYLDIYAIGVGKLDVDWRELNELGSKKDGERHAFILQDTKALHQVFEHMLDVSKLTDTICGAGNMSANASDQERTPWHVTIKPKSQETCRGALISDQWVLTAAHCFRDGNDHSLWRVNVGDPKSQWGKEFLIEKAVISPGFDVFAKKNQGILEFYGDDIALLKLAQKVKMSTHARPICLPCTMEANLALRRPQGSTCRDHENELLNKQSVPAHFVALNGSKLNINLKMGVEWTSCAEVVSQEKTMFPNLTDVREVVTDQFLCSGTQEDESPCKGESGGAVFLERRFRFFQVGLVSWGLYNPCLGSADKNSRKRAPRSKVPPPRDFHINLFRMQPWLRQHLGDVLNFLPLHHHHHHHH

B1: RF16-226 (antibody, human IgG4 S228P, lambda)
heavy: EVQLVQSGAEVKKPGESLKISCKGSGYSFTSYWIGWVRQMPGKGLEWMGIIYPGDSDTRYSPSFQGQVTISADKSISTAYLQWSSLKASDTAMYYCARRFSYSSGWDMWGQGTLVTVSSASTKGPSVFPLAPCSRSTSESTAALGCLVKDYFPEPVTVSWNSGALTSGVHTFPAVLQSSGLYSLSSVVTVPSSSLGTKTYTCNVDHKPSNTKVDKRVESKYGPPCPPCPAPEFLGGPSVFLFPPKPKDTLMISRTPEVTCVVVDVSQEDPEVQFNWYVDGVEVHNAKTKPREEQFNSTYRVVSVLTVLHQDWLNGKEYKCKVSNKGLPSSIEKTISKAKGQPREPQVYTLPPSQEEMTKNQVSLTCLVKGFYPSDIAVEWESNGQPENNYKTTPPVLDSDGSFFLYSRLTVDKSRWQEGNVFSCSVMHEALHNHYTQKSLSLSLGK
light: SYELTQPPSVSVSPGQTARITCSGDALTSKYVAWYQQKSGLAPLLVIYEDTRRPSGIPAKFSGSSSGSVATLTISGAHGDDEADYYCYSTDASGHQRVFGGGTKLTVLSQPKAAPSVTLFPPSSEELQANKATLVCLISDFYPGAVTVAWKADGSPVKAGVETTKPSKQSNNKYAASSYLSLTPEQWKSHRSYSCQVTHEGSTVEKTVAPTECS
notes: pH-dependent anti-C2 antibody from a phage display library; also called WT
[1]
  Kd: 10.1 nM
[2]
  Kd: 10.8 nM
[3]
  Kd: 17.1 nM
